Target: fibronectin (FN) from human plasma (human) (UniProt P02751)
UniProt P02751, sequence (P02751 32-2477): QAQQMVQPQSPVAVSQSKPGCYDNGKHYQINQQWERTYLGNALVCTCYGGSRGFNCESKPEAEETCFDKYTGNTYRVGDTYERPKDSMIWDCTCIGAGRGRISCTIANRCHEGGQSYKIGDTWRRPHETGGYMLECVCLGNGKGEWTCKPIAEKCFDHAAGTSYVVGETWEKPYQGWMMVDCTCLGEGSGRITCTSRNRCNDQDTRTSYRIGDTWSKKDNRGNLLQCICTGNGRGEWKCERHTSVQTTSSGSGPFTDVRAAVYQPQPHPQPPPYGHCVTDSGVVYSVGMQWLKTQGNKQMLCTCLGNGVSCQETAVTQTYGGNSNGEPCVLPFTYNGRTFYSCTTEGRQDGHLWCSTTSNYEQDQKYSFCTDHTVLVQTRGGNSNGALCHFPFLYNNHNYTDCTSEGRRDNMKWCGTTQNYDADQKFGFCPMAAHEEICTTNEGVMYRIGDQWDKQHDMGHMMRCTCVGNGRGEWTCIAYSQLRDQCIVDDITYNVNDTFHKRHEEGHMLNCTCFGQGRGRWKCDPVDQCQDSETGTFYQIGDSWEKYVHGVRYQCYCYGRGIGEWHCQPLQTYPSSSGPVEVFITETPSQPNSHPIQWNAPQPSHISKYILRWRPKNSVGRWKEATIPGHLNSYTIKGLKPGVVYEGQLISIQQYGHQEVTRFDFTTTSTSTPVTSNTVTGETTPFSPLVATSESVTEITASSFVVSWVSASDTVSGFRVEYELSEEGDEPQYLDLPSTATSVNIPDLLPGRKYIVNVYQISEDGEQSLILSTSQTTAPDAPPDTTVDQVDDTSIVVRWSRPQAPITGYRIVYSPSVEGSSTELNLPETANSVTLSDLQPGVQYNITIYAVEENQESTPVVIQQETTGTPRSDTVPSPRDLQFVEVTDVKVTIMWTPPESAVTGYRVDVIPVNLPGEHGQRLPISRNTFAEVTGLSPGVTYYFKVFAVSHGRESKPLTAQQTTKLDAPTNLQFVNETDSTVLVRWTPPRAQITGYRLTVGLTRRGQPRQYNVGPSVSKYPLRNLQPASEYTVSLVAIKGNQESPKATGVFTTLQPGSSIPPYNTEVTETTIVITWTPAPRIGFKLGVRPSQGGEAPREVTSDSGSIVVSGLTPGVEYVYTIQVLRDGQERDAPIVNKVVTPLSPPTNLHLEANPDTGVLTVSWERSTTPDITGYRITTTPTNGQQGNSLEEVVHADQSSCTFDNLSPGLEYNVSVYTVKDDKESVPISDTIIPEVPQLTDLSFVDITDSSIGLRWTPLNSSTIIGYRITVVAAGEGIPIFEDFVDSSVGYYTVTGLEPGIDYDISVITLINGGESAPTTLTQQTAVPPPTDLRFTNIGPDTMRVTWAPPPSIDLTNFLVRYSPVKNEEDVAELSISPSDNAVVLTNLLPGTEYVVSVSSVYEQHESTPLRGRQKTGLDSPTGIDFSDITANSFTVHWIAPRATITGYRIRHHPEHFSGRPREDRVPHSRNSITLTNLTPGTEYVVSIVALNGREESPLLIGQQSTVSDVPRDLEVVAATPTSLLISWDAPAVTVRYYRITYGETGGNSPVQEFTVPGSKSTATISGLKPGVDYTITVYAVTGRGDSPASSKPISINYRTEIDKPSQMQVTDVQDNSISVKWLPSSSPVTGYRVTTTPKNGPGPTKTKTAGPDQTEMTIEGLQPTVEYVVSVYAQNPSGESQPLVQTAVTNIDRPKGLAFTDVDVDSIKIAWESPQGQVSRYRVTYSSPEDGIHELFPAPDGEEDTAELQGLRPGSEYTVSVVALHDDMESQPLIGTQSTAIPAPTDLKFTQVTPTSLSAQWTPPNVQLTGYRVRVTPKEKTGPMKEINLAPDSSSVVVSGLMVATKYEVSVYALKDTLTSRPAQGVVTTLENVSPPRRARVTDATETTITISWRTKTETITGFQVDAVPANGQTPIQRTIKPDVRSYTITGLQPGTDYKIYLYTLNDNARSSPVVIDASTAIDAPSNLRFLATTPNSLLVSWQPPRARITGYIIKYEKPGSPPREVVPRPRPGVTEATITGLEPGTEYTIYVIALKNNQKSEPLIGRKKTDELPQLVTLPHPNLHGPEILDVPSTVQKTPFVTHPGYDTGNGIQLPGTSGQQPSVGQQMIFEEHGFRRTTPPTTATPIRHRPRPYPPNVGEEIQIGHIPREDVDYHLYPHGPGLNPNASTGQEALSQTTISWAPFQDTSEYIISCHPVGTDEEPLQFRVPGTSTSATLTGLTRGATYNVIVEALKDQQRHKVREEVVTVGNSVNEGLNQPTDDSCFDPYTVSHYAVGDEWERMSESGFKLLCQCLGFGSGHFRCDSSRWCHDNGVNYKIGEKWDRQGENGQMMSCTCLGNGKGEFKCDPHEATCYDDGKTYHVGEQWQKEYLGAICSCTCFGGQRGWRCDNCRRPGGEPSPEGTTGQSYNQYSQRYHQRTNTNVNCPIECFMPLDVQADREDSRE

B1: BMP-2 (bone morphogenetic protein 2) (ligand)
chain: QAKHKQRKRLKSSCKRHPLYVDFSDVGWNDWIVAPPGYHAFYCHGECPFPLADHLNSTNHAIVQTLVNSVNSKIPKACCVPTELSAISMLYLDENEKVVLKNYQDMVVEGCGCR
B1 was tested, and the surface density of BMP-2 on PEA-FN was 8 ng/cm2.

Reference: publication doi:10.1101/2022.07.28.501818
